Experimental data: patent US20190338048A1
pKd: −log10 of the molar value. Like-named read-outs stand apart in the source and are kept apart here. One block for each substance: values may come before it.

Experiments:
[1] = target: Recombinant human IL-17A (human) (UniProt Q16552); experiment: SPR as for KD
[2] = target: Recombinant HER2 protein (HER2-ECD) (UniProt P04626); experiment: SPR as for KD
[3] = target: Recombinant HER2 protein (HER2-ECD) (UniProt P04626); experiment: SPR, ProteOn XPR36
[4] = target: Recombinant human IL-17A (human) (UniProt Q16552); experiment: SPR
[5] = target: Pertuzumab kappa light chain V133D (L2), N-terminal HA tag; experiment: LCCA, SPR of light chain tags
[6] = target: Pertuzumab kappa light chain V133D (L2), N-terminal HA tag; experiment: LCCA, SPR of light chain tags; remark: listed apart in the source
[7] = target: Recombinant HER2 protein (HER2-ECD) (UniProt P04626); experiment: SPR
[8] = target: Recombinant human IL-17A (human) (UniProt Q16552); experiment: SPR, ProteOn XPR36
[9] = target: Pertuzumab kappa light chain S176V (L2), N-terminal HA tag; experiment: LCCA, SPR of light chain tags
[10] = target: CAT-2200 lambda light chain S176K_Y178K (L1), N-terminal FLAG tag; experiment: LCCA, SPR of light chain tags
[11] = target: CAT-2200 lambda light chain S176K_Y178L (L1), N-terminal FLAG tag; experiment: LCCA, SPR of light chain tags
[12] = target: Pertuzumab kappa light chain Q124E_Q160E_T180E (L2), N-terminal HA tag; experiment: LCCA, SPR of light chain tags
[13] = target: Pertuzumab kappa light chain Q124E_Q160E_T180E (L2), N-terminal HA tag; experiment: LCCA, SPR of light chain tags; remark: listed apart in the source
[14] = target: Pertuzumab kappa light chain Q124E_Q160E_T180E (L2), N-terminal HA tag; experiment: LCCA, SPR of light chain tags; remark: listed apart in the source

Substance: CAT-2200 Fab, H1 L124E_V190D / L1 V133I_L135K
Change in KD of H1L1 Fab vs wild type, -(log(KD design)-log(KD wt)) [1]: -3.56 log units

Substance: Pertuzumab Fab, H2 L124R / L2 V133G_S176D
Change in KD of H2L2 Fab vs wild type, -(log(KD design)-log(KD wt)) [2]: -0.01 log units | pKd [3]: 8.08

Substance: CAT-2200 designed Fab heterodimer, H1 S186R / L1 K129T_S180E
Change in KD of H1L1 Fab vs wild type, -(log(KD design)-log(KD wt)) [4]: -0.088 | pKd [4]: 9.59

Substance: Pertuzumab Fab heavy chain L143S_S186K_S188T (H2), ABD2-His6 tagged
H2L2:H2L1 normalized median ratio [5]: 64% | H2L2:H2L1 normalized median scalar value ln(r1/f1) [5]: 0.58 | H2L2:H2L1 normalized median ratio [6]: 63% | H2L2:H2L1 normalized median scalar value ln(r1/f1) [6]: 0.54

Substance: CAT-2200 Fab heterodimer H1L1 with H1 F174G and L1 T116F_S176F
Change in KD of H1L1 Fab vs wild type [4]: 0.08 | pKd [4]: 9.64

Substance: CAT-2200 Fab heterodimer, H1 S186R / L1 K129T_S180E
Change in KD of H1L1 Fab vs wild type, -(log(KD design)-log(KD wt)) [4]: -0.088 | pKd [4]: 9.59

Substance: CAT-2200 Fab heterodimer (H1L1) with H1 L143K and L1 K129T_V133D
Change in KD of H1L1 Fab vs wild type, -(log(KD design)-log(KD wt)) [4]: 0.03 | pKd [4]: 9.59

Substance: Pertuzumab Fab, H2 S188K / L2 S176E_T178E
Change in KD of H2L2 Fab vs wild type, -(log(KD design)-log(KD wt)) [2]: 0 log units | pKd [3]: 8.09

Substance: CAT-2200 Fab, H1 L124E_V190D / L1 V133I_L135K_Y178F
Change in KD of H1L1 Fab vs wild type, -(log(KD design)-log(KD wt)) [1]: -3.56 log units

Substance: CAT-2200 designed Fab heterodimer, H1 L143D_K145T / L1 E124Q_T131K_V133S
Change in KD of H1L1 Fab vs wild type, -(log(KD design)-log(KD wt)) [4]: -0.19 | pKd [4]: 9.48

Substance: CAT-2200 Fab, H1 K145T_S188E / L1 Y178K
Change in KD of H1L1 Fab vs wild type [4]: -0.22 | pKd [4]: 9.47

Substance: CAT-2200 Fab, H1 A125R_S186R / L1 S122D_K129T_S180E
Change in KD of H1L1 Fab vs wild type, -(log(KD design)-log(KD wt)) [4]: -0.0041 log(KD) | pKd [4]: 9.68

Substance: CAT-2200 Fab heterodimer H1L1 without pairing substitutions (H1L1 of Mab design sets 10771-11335 and 10771-11360)
Change in KD of H1L1 Fab vs wild type, -(log(KD design)-log(KD wt)) [4]: 0

Substance: CAT-2200 Fab heterodimer H1L1 with H1 K145T_V177D_S188D and L1 S176K_Y178K
Change in KD of H1L1 Fab vs wild type [4]: 0 | pKd [4]: 9.57

Substance: CAT-2200 Fab heterodimer (H1L1) with H1 K145T_V177D_S188D and L1 S176K_Y178K
pKd [4]: 9.57

Substance: CAT-2200 Fab heterodimer H1L1 with H1 V177I_S188K and L1 V133L_S176D_Y178E (Kabat)
pKd [4]: 9.66

Substance: CAT-2200 Fab heterodimer H1 L143K / L1 K129T_V133D
Change in KD of H1L1 Fab vs wild type [4]: 0.03 | pKd [4]: 9.59

Substance: Pertuzumab Fab heavy chain S186L_S188W (H2), ABD2-His6 tagged
H2L2:H2L1 normalized median ratio [9]: 40% | H2L2:H2L1 normalized median scalar value ln(r1/f1) [9]: -0.39

Substance: CAT-2200 designed Fab heterodimer, H1 K145T_S188E / L1 Y178K
Change in KD of H1L1 Fab vs wild type, -(log(KD design)-log(KD wt)) [4]: -0.22 | pKd [4]: 9.47

Substance: CAT-2200 Fab heterodimer H1L1 with H1 S186R and L1 K129T_S180E
Change in KD of H1L1 Fab vs wild type, -(log(KD design)-log(KD wt)) [4]: 0.03 | pKd [4]: 9.59

Substance: CAT-2200 Fab, H1 L143D_K145T / L1 E124Q_T131R
Change in KD of H1L1 Fab vs wild type [4]: -0.22 | pKd [4]: 9.46

Substance: CAT-2200 Fab heterodimer H1L1 with H1 L143D_K145T and L1 E124Q_T131K
Change in KD of H1L1 Fab vs wild type [4]: 0.1 | pKd [4]: 9.66

Substance: CAT-2200 Fab heterodimer, H1 V177I_S188K / L1 V133I_S176D_Y178E
Change in KD of H1L1 Fab vs wild type [4]: 0.08 | pKd [8]: 9.64

Substance: CAT-2200 designed Fab heterodimer, H1 Q179K / L1 K129T_S180E
Change in KD of H1L1 Fab vs wild type, -(log(KD design)-log(KD wt)) [4]: -0.056 | pKd [4]: 9.62

Substance: CAT-2200 Fab, H1 L124E_V190D / L1 L135K_Y178F
Change in KD of H1L1 Fab vs wild type, -(log(KD design)-log(KD wt)) [1]: -3.56 log units

Substance: Pertuzumab Fab, H2 L45P_L143R / L2 P44F_Q124E_V133D
pKd [7]: 8.23

Substance: CAT-2200 Fab heterodimer H1L1 with H1 K145T_S188E and L1 Y178K
Change in KD of H1L1 Fab vs wild type [4]: -0.1 | pKd [4]: 9.47

Substance: CAT-2200 Fab heterodimer H1 L143E_K145T_Q179E / L1 E124Q_T131R
Change in KD of H1L1 Fab vs wild type [4]: -0.03 | pKd [4]: 9.54

Substance: Pertuzumab Fab heavy chain S186R (H2), ABD2-His6 tagged
H2L2:H2L1 normalized median ratio [10]: 4% | H2L2:H2L1 normalized median ratio [11]: 11% | H2L2:H2L1 normalized median ratio [12]: 96% | H2L2:H2L1 normalized median scalar value ln(r1/f1) [12]: 3.29 | H2L2:H2L1 normalized median ratio [13]: 89% | H2L2:H2L1 normalized median scalar value ln(r1/f1) [13]: 2.07 | H2L2:H2L1 normalized median ratio [14]: 97% | H2L2:H2L1 normalized median scalar value ln(r1/f1) [14]: 3.46

Substance: Pertuzumab Fab, H2 S188K / L2 S131D_V133G_T178F
Change in KD of H2L2 Fab vs wild type, -(log(KD design)-log(KD wt)) [2]: -0.02 log units | pKd [3]: 8.07

Substance: Pertuzumab Fab with H2 Q39E_L124R_Q179K and L2 Q38R_V133G_S176D_T180E
Change in KD of H2L2 Fab vs wild type [7]: 0.016 | pKd [7]: 8.12

Substance: CAT-2200 Fab heterodimer H1L1 without pairing substitutions (wild-type H1 and L1)
Change in KD of H1L1 Fab vs wild type, -(log(KD design)-log(KD wt)) [4]: 0

Substance: Pertuzumab Fab, H2 Q39E_L143R / L2 Q38R_Q124E_V133D
pKd [7]: 8.12

Substance: CAT-2200 Fab heterodimer H1L1 with H1 L143E_K145T_Q179E and L1 E124Q_T131R
Change in KD of H1L1 Fab vs wild type, -(log(KD design)-log(KD wt)) [4]: -0.03 | pKd [4]: 9.54

Now from value to substance:

Change in KD of H2L2 Fab vs wild type, -(log(KD design)-log(KD wt)) [7]: 0.023 | pKd [7]: 8.13
Substance: Pertuzumab Fab heterodimer, H2 Q39E_L143E_K145T_Q179E / L2 Q38R_Q124R_T178R

Change in KD of H1L1 Fab vs wild type [4]: -0.0041 | pKd [4]: 9.68
Substance: CAT-2200 designed Fab, H1 A125R_S186R / L1 S122D_K129T_S180E

Change in KD of H2L2 Fab vs wild type, -(log(KD design)-log(KD wt)) [2]: 0.04 log units | pKd [3]: 8.13
Substance: Pertuzumab Fab, H2 L143K / L2 Q124E_V133D

Change in KD of H1L1 Fab vs wild type [4]: 0.08 | pKd [8]: 9.66
Substance: CAT-2200 Fab heterodimer, H1 V177I_S188K / L1 V133L_S176D_Y178E

Change in KD of H2L2 Fab vs wild type, -(log(KD design)-log(KD wt)) [2]: 0 log units | pKd [3]: 8.10
Substance: Pertuzumab Fab, H2 S186K / L2 V133D

Change in KD of H1L1 Fab vs wild type [4]: -0.22 | pKd [4]: 9.47
Substance: CAT-2200 Fab with H1 K145T_S188E and L1 Y178K

Change in KD of H2L2 Fab vs wild type [7]: 0.065 | pKd [7]: 8.17
Substance: Pertuzumab Fab with H2 L45P_L124R_Q179K and L2 P44F_V133G_S176D_T180E

pKd [4]: 9.57
Substance: CAT-2200 Fab heterodimer (H1L1) with H1 K145T_V177D_S188D and L1 S176K_Y178R

Change in KD of H1L1 Fab vs wild type [4]: -0.1 | pKd [4]: 9.46
Substance: CAT-2200 Fab heterodimer H1L1 with H1 L143D_K145T and L1 E124Q_T131R

Change in KD of H1L1 Fab vs wild type, -(log(KD design)-log(KD wt)) [1]: 0.1 log units | pKd [8]: 9.66
Substance: CAT-2200 Fab, H1 L143D_K145T / L1 E124Q_T131K

Change in KD of H1L1 Fab vs wild type [4]: -0.08 | pKd [4]: 9.48
Substance: CAT-2200 Fab heterodimer H1L1 with H1 L143D_K145T and L1 E124Q_T131K_V133S

Change in KD of H1L1 Fab vs wild type, -(log(KD design)-log(KD wt)) [8]: 0.01 | pKd [8]: 9.57
Substance: CAT-2200 Fab heterodimer H1L1 with H1 K145T_V177D_S188D and L1 S176K_Y178R

pKd [4]: 9.55
Substance: CAT-2200 Fab heterodimer H1L1 of design 10652-10755 (H1 L143E_K145T, L1 E124R)

Change in KD of H1L1 Fab vs wild type, -(log(KD design)-log(KD wt)) [4]: -0.24 | pKd [4]: 9.44
Substance: CAT-2200 Fab heterodimer, H1 S188K / L1 S176E_Y178E

H2L2:H2L1 normalized median ratio [9]: 40% | H2L2:H2L1 normalized median scalar value ln(r1/f1) [9]: -0.39
Substance: Pertuzumab Fab heavy chain S186I_S188W (H2), ABD2-His6 tagged

pKd [7]: 8.23
Substance: Pertuzumab Fab heterodimer, H2 L45P_L143E_K145T_Q179E / L2 P44F_Q124R_T178R

Change in KD of H1L1 Fab vs wild type, -(log(KD design)-log(KD wt)) [1]: 0.11 log units | pKd [8]: 9.68
Substance: CAT-2200 Fab, H1 K145T_V177T_S188E / L1 Y178K

Change in KD of H1L1 Fab vs wild type, -(log(KD design)-log(KD wt)) [8]: 0.11 | pKd [8]: 9.68
Substance: CAT-2200 Fab heterodimer H1L1 with H1 K145T_V177T_S188E and L1 Y178K
